Sequences and labels used below:
B1: S279_M70aE8 metagenomic GDSL-type esterase (enzyme)
chain: MPKIAKLAPSDVIVAFGDSLTFGTGATEAESYPIVLAQLIGRTVVRAGVPGEVTEGGLARLTDVIEEHKPKLIIVCLGGNDMLRKVQEDQTRANLRAIIKTIKAQGIAVVLVGVPKPALVTSAPPFYEEIAKEFGIPYEGKIVTDVLYQRDQKSDSIHPNAKGYRRMAEAIATLLKKSGAI
B2: Sinorhizobium meliloti SmeII (Q92XZ1) (enzyme)
chain: MEETVARTVLCFGDSNTHGQVPGRGPLDRYRREQRWGGVLQGLLGPNWQVIEEGLSGRTTVHDDPIEGSLKNGRTYLRPCLQSHAPLDLIIIMLGTNDLKRRFNMPPSEVAMGIGCLVHDIRELSPGRTGNDPEIMIVAPPPMLEDLKEWESIFSGAQEKSRKLALEFEIMADSLEAHFFDAGTVCQCSPADGFHIDEDAHRLLGEALAQEVLAIGWPDA
notes: Expressed in E. coli from pET26_SmeII; also called pET26_SmeII
B3: Sinorhizobium meliloti RSM02162 (G00355) (enzyme)
chain: MVEKRSVLCFGDSLTWGWIPVKESSPTLRYPYEQRWTGAMAARLGDGYHIIEEGLSARTTSLDDPNDARLNGSTYLPMALASHLPLDLVIIMLGTNDTKSYFHRTPYEIANGMGKLVGQVLTCAGGVGTPYPAPKVLVVAPPPLAPMPDPWFEGMFGGGYEKSKELSGLYKALADFMKVEFFAAGDCISTDGIDGIHLSAETNIRLGHAIADKVAALF
notes: Synthetic gene G00355, expressed in E. coli from pMC355rbs; also called pMC355rbs
B4: Sinorhizobium meliloti SmeI (SMa1993) (enzyme)
chain: MTINSHSWRTLMVEKRSVLCFGDSLTWGWIPVKGSSPTLRYPYEQRWTGAMAARLGDGYHIIEEGLSARTTSLDDPNDARLNGSTYLPMALASHLPLDLVIIMLGTNDTKSYFHRTPYEIANGMGKLVGQVLTCAGGVGTPYPAPKVLVVAPPPLAPMPDPWFEGMFGGGYEKSKELSGLYKALADFMKVEFFAAGDCISTDGIDGIHLSAETNIRLGHAIADKVAALF
B5: S261_M2aA12 metagenomic GDSL-type esterase (enzyme)
chain: MKNILAFGDSLTWGFVAGQDARHPFETRWPNALAAGLGGKARVIEEGQNGRTTVFDDAATFESRNGSVALPLLLISHQPLDLVIIMLGTNDIKFAARCRAFDASMGMERLIQIVRSANYMKGYKIPEILIISPPSLVPTQDEWFNDLWGHAIAESKLFAKHYKRVAEELKVHFFDAGTVAVADKTDGGHLDAVNTKAIGVALVPVVKSILAL
notes: Metagenomic clone; also called pET26_m2aA12
B6: Moraxella bovis Mbo (AAK53448) (enzyme)
chain: KEFSQVIIFGDSLSDTGRLKDMVARKDGTLGNTLQPSFTTNPDPVWSSLFAQSYGKTASPNTPDNPTGTNYAVGGARSGSEVNWNGFVNVPSTKTQITDHLTATGGKADPNTLYAIWIGSNDLISASQATTTAEAQNAIKGAVTRTVIDIETLNQAGATTILVPNVPDLSLTPRAIYGESLMAGVQDKAKLASSLYNSGLFEALNQSTANIIPANTFALLQEATTNKEAFGFKNTQGVACQMPARTTGADDVASTSLACTKANLIENGANDTYAFADDIHPSGRTHRILAQYYRSIMDAPTHMGKLSGELVKTGSAHDRHVYRQLDRLSGSQHSIWANVYASDRTDPTTQIGLDVAGSSSHTGAYLSHQNQDYVLDDTLSSDVKTIGMGLYHRHDIGNVRLKGVAGIDRLSVDTHRHIDWEGTSRSHTADTTARRFHAGLQASYGIDMGKATVRPLIGVHAQKVKVNDMTESESTLSTAMRFGEQEQKSLQGEIGVDVAYPISPALTLTGGIAHAHEFNDDERTINATLTSIREYTKGFNTSVSTDKSHATTAHLGVQGQLGKANIHAGVHATHQDSDTDVGGSLGVRLMF
notes: Described as an outer membrane localized autotransporter protein; also called pET26_Mbo
B7: Salmonella typhimurium Stm (AAC38796) (enzyme)
chain: FDSLTVIGDSLSDTGNNGRWTWDSGQNKLYDEQLAERYGLELSPSSNGGSNYAAGGATATPELNPQDNTADQVRQWLAKTGGKADHNGLYIHWVGGNDLAAAIAQPTMAQQIAGNSATSAAAQVGLLLDAGAGLVVVPNVPDISATPMLLEAVITAGLGAAAPPALKAALDALAEGATPDFASRQQAIRKALLAAAATVSSNPFIQQLLVEQLLAGYEAAAGQASALTDYYNQMEEKGLEQHGGNIARADINGLFKEILANPQAFGLTNTVGMACPPGVSASACSSAMPGFNASQDYVFADHLHPGPQVHTIIAQYIQSIIAAPVQATYLNQSVQSMAQGSRTTLDSRYQQLRQGENPVGSLGMFGGYSGGYQRYDNNEADGNGNHNNLTVGVDYQLNEQVLLGGLIAGSLDKQHPDDNYRYDARGFQAAVFSHLRAGQAWLDSDLHFLSAKFSNIQRSITLGALRRVEEGETNGRLSGASLTSGYDFVMVPWLTTGPMLQYAWDYSHVNGYSEKLNTSTSMRFGDQNAHSQVGSAGWRLDLRHSIIHSWAQINYRRQFGDDTYVANGGLKSTALTFSRDGKTQDKNWVDIAIGADFPLSATVSAFAGLSQTAGLSDGNQTRYNVGFSARF
notes: Described as an outer membrane localized autotransporter protein; also called Sty
B8: Mesorhizobium loti Mlo I (Q98MY5) (enzyme)
chain: MKTVLCYGDSLTWGYNAEGGRHALEDRWPSVLQAALGAGVQVIADGLNGRTTAFDDHLAGADRNGARLLPTVLTTHAPIDLIIFMLGANDMKPWIHGNPVAAKQGIQRLIDIVRGHDYPFDWPAPQILIVAPPVVSRTENADFKEMFAGGDDASKFLAPQYAALADEAGCGFFDAGSVAQTTPLDGVHLDAENTREIGKALTPIVRVMLEL
notes: Expressed in E. coli from pET26_Mlo; also called pET26_Mlo; pET26_MlO

One data set has as its target S279_M70aE8 metagenomic GDSL-type esterase. Description: self-association; Sephadex 200 sizing column, fractions assayed for pNB activity; standards 669 kDa 16 ml, 158 kDa 24 ml, 43 kDa 26 ml, 14 kDa 32 ml.
On to B1, for which the elution volume was determined as 32 mL.

Another data set deals with the molecule itself. The description is as above.
Molecule B2 showed an elution volume of 24 mL.
Same read-out and setting: then B3, with 24 mL.
Molecule B4 gave an elution volume of 24 mL.
As for B5, the elution volume stood at 24 mL.
Molecule B6 yielded an elution volume of 24 mL.
The molecule B7 gave an elution volume of 24 mL.
In the case of B8, the elution volume came out at 24 mL.

Values taken from patent publication US8772007 (dated 2014).
